The values below come from PMC2864356 (Biochemistry, 2010).

Among the targets are PDE5/6cd I802T (human) (UniProt O76074); PDE5/6cd V796E (human) (UniProt O76074); PDE5/6cd F823A (human) (UniProt O76074); PDE5/6cd Q799I (human) (UniProt O76074); PDE5/6cd M804A (human) (UniProt O76074); PDE5/6cd L792R (human) (UniProt O76074); PDE5/6cd I802A (human) (UniProt O76074); PDE5/6cd M804L (human) (UniProt O76074); PDE5/6cd P803D (human) (UniProt O76074); PDE5cd A823F (human, UniProt O76074 535-860, A823F).

What all share (experiment): inhibition of PDE activity
In assay [1] the target is PDE5/6cd I802T/P803D/M804L (human) (UniProt O76074).
In assay [2] the target is PDE5/6cd L792R/V796E/Q799I (human) (UniProt O76074).
In assay [3] the target is PDE5/6cd I802A//M804A (human) (UniProt O76074).
Assay [4] has as its target PDE5/6cd I802A/P803D/M804L (human) (UniProt O76074).
Assay [5] has as its target chimeric PDE5/PDE6 catalytic domain PDE5/6cd (human) (UniProt O76074).
The target of assay [6] is PDE5cd T802I/D803P/L804M/A823F (human, UniProt O76074 535-860, T802I | D803P | L804M | A823F).
The target in assay [7] is PDE5cd R792L/E796V/I799Q/A823F (human, UniProt O76074 535-860, R792L | E796V | I799Q | A823F).

The Ki is the dissociation constant of the complex between target and ligand, obtained from inhibition or displacement. Regarding “Pγ C-terminal peptide Pγ_(63-87) (from UniProt P04972 63-87)”, the inhibition constant Ki in [1] worked out at 21.8 µM; in the assay with PDE5/6cd I802T (human), 8.6 µM; in the assay with PDE5/6cd V796E (human), 1.8 µM; in assay [2], 6 µM; in the assay with PDE5/6cd F823A (human), 15.1 µM; with PDE5/6cd Q799I (human), 3.5 µM. In addition, the inhibition constant (Ki) in the assay with PDE5/6cd M804A (human) amounted to 10.3 µM; in the assay with PDE5/6cd L792R (human) it was 3.2 µM; with PDE5/6cd I802A (human), 12.1 µM; in assay [3], 26.2 µM; with PDE5/6cd M804L (human), 2 µM; in assay [4] it was 25.5 µM. The results for the inhibition constant (Ki) (with PDE5/6cd P803D (human); in assay [5]) were 6.7 µM and 1.7 µM, respectively.

With DITVICPWEAFNHLELHELAQYGII (peptide, UniProt P04972 63-87, looked up) [Pγ C-terminal peptide Pγ_(63-87)], the figures for the inhibition constant Ki (in assay [6]; in assay [7]; with PDE5cd A823F) were 19.4 µM, 23.5 µM and 44.3 µM, respectively. Also, the “maximal inhibition (%)” value in assay [6] was 72 ± 4%; in [7] it was 78 ± 5%; in the assay with PDE5cd A823F, 52 ± 4%.
